The test system of this assay is human NPC. As to the kind of experiment: Plating assay: NPC colony formation / quiescence. The class given is cell-based. The following applies: fraction less than 30,000 Da after size-exclusion column. Here is the method: Cells and Materials: Normal human NPC were obtained from Clonetics Corp (San Diego, Calif.), and grown in neural progenitor maintenance medium (Clonetics) with human recombinant basic fibroblast growth factor, epidermal growth factor, neural survival factors and antibiotics. These cells were derived as described previously (Svendsen (1998) J. Neurosci. Meth. 85:141-152).
Plating Assay: On day 0, HIV coat proteins at a concentration of 800 pM, or CSF at a concentration of 2% was added to cultures of NPC. Each protein or CSF sample was tested in triplicate. Cultures were incubated for seven days, and then cells were plated onto 24 well polyethylene-imine coated plates. The number of cell colonies having more than 20 cells with typical neuronal morphology was counted for each well after 7 days in culture. Determinations of colony inhibition for all proteins and CSF samples were done on each of three different lots of NPC. […]
The ability of HIV coat proteins to induce quiescence in human NPC was tested using NPC in the form of neurospheres. […] The number of colonies containing more than 20 cells with typical neuronal morphology was counted after 7 days in culture. […] None of the coat proteins induced cell death in NPC, as determined by trypan blue staining (>95% viability in all coat-protein treated cultures). […]
Background: Size exclusion chromatography separates by hydrodynamic size, large species first.

Data on 1 molecule can be found in US20060074049A1, “Use of heparinoids for treatment and prevention of dementia” (priority 2004, published 2006).

B1: RANTES: inflammatory chemokine (protein, UniProt P13501 24-91, looked up)
C-C motif chemokine 5: SPYSSDTTPCCFAYIARPLPRAHIKEYFYTSGKCSNPAVVFVTRKNRQVCANPEKKWVREYINSLEMS
With B1, the “effect on NPC in the plating assay” value was “inhibit NPC”.
